Assay results as given in the supplement of paper PMC7877785.
± gives the uncertainty stated by the source.

Experiment: self-splicing fitness, log relative to wild type (ln ratio); higher = more splicing; Tetrahymena group I intron in knt gene, E. coli kanamycin selection, DiMSum; sequences stand for … in CUCUCU…GGAGGGAAAAGUUAUCAGGCAUGCACCUGGUAGCUAGUCUUUAAACCAAUAGAUUGCAUCGGUUUAAAAGGCAAGACCGUCAAAUUGCGGGAAAGGGGUCAACAGCCGUUCAGUACCAAGUCUCAGGGGAAACUUUGAGAUGGCCUUGCAAAGGGUAUGGUAAUAAGCUGACGGACAUGGUCCUAACCACGCAGCCAAGUCCUAAGUCAACAGAUCUUCUGUUGAUAUGGAUGCAGUUCACAGACUAAAUGUCGGUCGGGGAAGAUGUAUUCUUCUCAUAAGAUAUAGUCGGACCUCUCCUUAAUGGGAGCUAGCGGAUGAAGUGAUGCAACACUGGAGCCGCUGGGAACUAAUUUGUAUGCGAAAGUAUAUUGAUUAGUUUUGGAGUACUCGUGGUCG
How it was run: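 Library with all eight P1ex-region intron nucleotides randomised, intron inside the knt kanamycin-resistance gene on pET-22b(+), in E. coli BL21(DE3). Cells grew overnight at 37°C or 30°C on LB agar with or without 25 μg/mL kanamycin (plus 100 μg/mL carbenicillin, 50 μM IPTG, 0.2% rhamnose), in six replicate transformations. Pooled colonies were amplicon-sequenced on Illumina HiSeq 2500. DiMSum fitness is the error-weighted combination of wild-type-normalised replicate fold changes, kanamycin versus none.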

| Sequence | self-splicing fitness (ln) (30 °C) | self-splicing fitness (ln) (37 °C) |
| --- | --- | --- |
| CCAGAGCAAUAUUACGCCAU | -2.03 ± 0.19 | -2.75 ± 0.27 |
| CCAGAGCAAUAUUACGCGAA | -4.06 ± 0.4 | -2.15 ± 0.29 |
| CCAGAGCAAUAUUACGCGGG | -3.33 ± 0.44 | – |
| CCAGAGCAAUAUUACGCUUC | -3.48 ± 0.42 | – |
| CCAGAGCAAUAUUACGGAAC | -2.32 ± 0.2 | -3.08 ± 0.36 |
| CCAGAGCAAUAUUACGGACA | -3.25 ± 0.44 | – |
| CCAGAGCAAUAUUACGGCUU | -3.75 ± 0.28 | -1.8 ± 0.2 |
| CCAGAGCAAUAUUACGGGCA | -2.92 ± 0.28 | -2.64 ± 0.38 |
| CCAGAGCAAUAUUACGUAAC | -3.56 ± 0.37 | -1.96 ± 0.32 |
| CCAGAGCAAUAUUACGUCGA | -3.92 ± 0.18 | -3.12 ± 0.17 |
| CCAGAGCAAUAUUACGUGAA | -3.7 ± 0.16 | -2.32 ± 0.18 |
| CCAGAGCAAUAUUACGUGUA | -3.22 ± 0.21 | -2.08 ± 0.23 |
| CCAGAGCAAUAUUACGUGUU | -3.64 ± 0.16 | -2.88 ± 0.17 |
| CCAGAGCAAUAUUACGUUAU | -3.68 ± 0.24 | -2.2 ± 0.2 |
| CCAGAGCAAUAUUACGUUGG | -3.93 ± 0.23 | -2.57 ± 0.23 |
| CCAUAGCAAUAUUACGGAAA | -2.94 ± 0.41 | -2.36 ± 0.34 |
| CCAUAGCAAUAUUACGGAGG | -3.57 ± 0.21 | -0.997 ± 0.15 |
| CCAUAGCAAUAUUACGGCGG | -1.95 ± 0.13 | -1.6 ± 0.18 |
| CCAUAGCAAUAUUACGGGCC | – | -1.32 ± 0.23 |
| CCAUAGCAAUAUUACGGUAG | -2.01 ± 0.1 | -0.787 ± 0.11 |
| CCAUAGCAAUAUUACGGUGA | -1.18 ± 0.11 | -1.74 ± 0.12 |
| CCAUAGCAAUAUUACGUCGU | -2.4 ± 0.15 | -2.82 ± 0.23 |

| Sequence | self-splicing fitness (ln) (30 °C) | self-splicing fitness (ln) (37 °C) |
| --- | --- | --- |
| CCAUAGCAAUAUUACGUUAG | -3.33 ± 0.13 | -2.01 ± 0.13 |
| CCAUAGCAAUAUUACGUUCA | -3.17 ± 0.26 | -2.6 ± 0.44 |
| CCAUAGCAAUAUUACGUUGU | -4.79 ± 0.41 | -2.66 ± 0.19 |
| CCCAAGCAAUAUUACGAAAG | -3.49 ± 0.17 | -3.39 ± 0.31 |
| CCCAAGCAAUAUUACGAACA | -3.02 ± 0.27 | -3.04 ± 0.26 |
| CCCAAGCAAUAUUACGAACC | – | -2.59 ± 0.35 |
| CCCAAGCAAUAUUACGAACU | -3.54 ± 0.34 | -2.91 ± 0.38 |
| CCCAAGCAAUAUUACGACUG | -3.41 ± 0.14 | -3.49 ± 0.23 |
| CCCAAGCAAUAUUACGAGCA | -3.01 ± 0.24 | -2.95 ± 0.25 |
| CCCAAGCAAUAUUACGAGGC | -4.03 ± 0.15 | -3.25 ± 0.18 |
| CCCAAGCAAUAUUACGAUAC | -3.63 ± 0.46 | – |
| CCCAAGCAAUAUUACGAUAU | -3.29 ± 0.19 | -3.25 ± 0.15 |
| CCCAAGCAAUAUUACGAUUA | -2.97 ± 0.19 | -2.9 ± 0.27 |
| CCCAAGCAAUAUUACGCGAC | -3.2 ± 0.21 | -2.29 ± 0.19 |
| CCCAAGCAAUAUUACGCGAG | -3.22 ± 0.24 | -2.58 ± 0.2 |
| CCCAAGCAAUAUUACGCGGC | -2.8 ± 0.2 | -2.38 ± 0.23 |
| CCCAAGCAAUAUUACGCGUC | -3.06 ± 0.16 | -2.6 ± 0.29 |
| CCCAAGCAAUAUUACGCGUU | -4.28 ± 0.18 | -1.74 ± 0.12 |
| CCCAAGCAAUAUUACGGAAC | -3.54 ± 0.21 | -2.62 ± 0.25 |
| CCCAAGCAAUAUUACGGGAA | -2.75 ± 0.17 | -1.96 ± 0.16 |
| CCCAAGCAAUAUUACGGGCU | -3.61 ± 0.18 | -2.31 ± 0.17 |
| CCCAAGCAAUAUUACGGUAA | -2.25 ± 0.14 | -1.4 ± 0.16 |
